{"source": "patent US20070089183A1", "about": "“Size and/or growth engineering by modulation of the interaction between calmodulin, and brassinosteroid biosynthetic enzymes and orthologs therof” (Washington State University, priority 2005, published 2007)", "molecules": {"B1": {"name": "DWF4: Arabidopsis brassinosteroid biosynthetic enzyme DWF4 (AT3G50660) (protein, listed as Arabidopsis thaliana)", "chain": "MFETEHHTLLPLLLLPSLLSLLLFLILLKRRNRKTRFNLPPGKSGWPFLGETIGYLKPYTATTLGDFMQQHVSKYGKIYRSNLFGEPTIVSADAGLNRFILQNEGRLFECSYPRSIGGILGKWSMLVLVGDMHRDMRSISLNFLSHARLRTILLKDVERHTLFVLDSWQQNSIFSAQDEAKKFTFNLMAKHIMSMDPGEEETEQLKKEYVTFMKGVVSAPLNLPGTAYHKALQSRATILKFIERKMEERKLDIKEEDQEEEEVKTEDEAEMSKSDHVRKQRTDDDLLGWVLKHSNLSTEQILDLILSLLFAGHETSSVAIALAIFFLQACPKAVEELREEHLEIARAKKELGESELNWDDYKKMDFTQCVINETLRLGNVVRFLHRKALKDVRYKGYDIPSGWKVLPVISAVHLDNSRYDQPNLFNPWRWQQQNNGASSSGSGSFSTWGNNYMPFGGGPRLCAGSELAKLEMAVFIHHLVLKFNWELAEDDQPFAFPFVDFPNGLPIRVSRIL"}, "B2": {"name": "DWF5: Arabidopsis DWF5 (AT1G50430), sterol Δ7 reductase (protein, listed as Arabidopsis thaliana)", "chain": "MAETVHSPIVTYASMLSLLAFCPPFVILLWYTMVHQDGSVTQTFGFFWENGVQGLINIWPRPTLIAWKIIFCYGAFEAILQLLLPGKRVEGPISPAGNRPVYKANGLAAYFVTLATYLGLWWFGIFNPAIVYDHLGEIFSALIFGSFIFCVLLYIKGHVAPSSSDSGSCGNLIIDFYWGMELYPRIGKSFDIKVFTNCRFGMMSWAVLAVTYCIKQYEINGKVSDSMLVNTILMLVYVTKFFWWEAGYWNTMDIAHDRAGFYICWGCLVWVPSVYTSPGMYLVNHPVELGTQLAIYILVAGILCIYINYDCDRQRQEFRRTNGKCLVWGRAPSKIVASYTTTSGETKTSLLLTSGWWGLARHFHYVPEILSAFFWTVPALFDNFLAYFYVIFLTLLLFDRAKRDDDRCRSKYGKYWKLYCEKVKYRIIPGIY"}, "B3": {"name": "CPD: Arabidopsis CPD (AT5G05690), cytochrome P450 90A1 (protein, listed as Arabidopsis thaliana)", "chain": "MAFTAFLLLLSSIAAGFLLLLRRTRYRRMGLPPGSLGLPLIGETFQLIGAYKTENPEPFIDERVARYGSVFMTHLFGEPTIFSADPETNRFVLQNEGKLFECSYPASICNLLGKHSLLLMKGSLHKRMHSLTMSFANSSIIKDHLMLDIDRLVRFNLDSWSSRVLLMEEAKKITFELTVKQLMSFDPGEWSESLRKEYLLVIEGFFSLPLPLFSTTYRKAIQARRKVAEALTVVVMKRREEEEEGAERKKDMLAALLAADDGFSDEEIVDFLVALLVAGYETTSTIMTLAVKFLTETPLALAQLKEEHEKIRAMKSDSYSLEWSDYKSMPFTQCVVNETLRVANIIGGVFRRAMTDVEIKGYKIPKGWKVFSSFRAVHLDPNHFKDARTFNPWRWQSNSVTTGPSNVFTPFGGGPRLCPGYELARVALSVFLHRLVTGFSWVPAEQDKLVFFPTTRTQKRYPIFVKRRDFAT"}}}
{"tested_on": "Ca^2+/CaM", "experiment": "gel mobility shift assay of BR biosynthetic proteins", "type": "binding, potato", "details": "FIG. 5", "source_text": "PCM1: potato calmodulin 1; PCM6: potato calmodulin 6. Sequences of respective CaMBD are also shown: N-DWF4 (SEQ ID NO:18); C-DWF4 (SEQ ID NO:19); CPD (SEQ ID NO:17); and DWF5 (SEQ ID NO:20).\nDWF1Ca^2+ is an important second messenger and an integral part of the cellular signalling system in plants^5,29. Applicants were thus prompted to survey the CaM-binding properties of other proteins involved in brassinosteroid biosynthesis."}
{"molecule": "B1", "Ca^2+/CaM binding": "Ca^2+/CaM-binding proteins"}
{"molecule": "B2", "Ca^2+/CaM binding": "Ca^2+/CaM-binding proteins"}
{"molecule": "B3", "Ca^2+/CaM binding": "Ca^2+/CaM-binding proteins"}
